# Results reported in paper PMC12473987.
# Target: strep-HA3/B (Clostridium botulinum serotype B strain Okra)
# Experiment: SEC; […], PBS pH 6.0, 0.75 mL/min, […]
substance,measurement,value
strep-HA3/B (domain or fragment),stoichiometry N,3
